In PMC11096469:
One block for each substance: values may come before it.

Experiments:
[1] = target: C_(γ2-3) chain (Fc fragment containing the hinge region) (human); experiment: non-reducing SDS-PAGE with immunoblot; culture supernatants of HEK293 transfectants 48 h after transfection; 4-20% gels, reducing and non-reducing; probed with anti-human IgG-Fc and anti-human Cκ; covalent assembly
[2] = target: C_(γ1-3) chain (VH-deleted human IgG1 heavy chain) (human); experiment: as above
[3] = target: Cκ chain (Vκ-deleted human kappa light chain) (human) (UniProt P01834); experiment: non-reducing SDS-PAGE with immunoblot; culture supernatants of HEK293-BiP cells transfected with LCs alone, 48 h after transfection; reducing and non-reducing gels

stoichiometry N [1]: 2
Substance: C_(γ2-3) chain (Fc fragment containing the hinge region) (domain or fragment)

stoichiometry N [2]: 2
Substance: C_(γ1-3) chain (VH-deleted human IgG1 heavy chain) (domain or fragment)

stoichiometry N [3]: 2
Substance: Cκ chain (Vκ-deleted human kappa light chain) (from UniProt P01834 1-107) (domain or fragment)
